Assays:
[1] = target: T1, metavinculin-ΔH1ΔH1′ (lacking residues 895–915 and 963–983) (human, UniProt P18206 1-1134, lacking residues 895–915 | lacking residues 963–983); assay: pull-down; GST-Vt (0.5 µM) on GST-Sepharose beads, with or without pre-incubation with 5 µM PIP2; 15 µM His8-tagged metavinculin or deletion mutant pre-activated with talin-VBS3, 1 hr 37°C; 20 mM Tris-HCl pH 8, 150 mM NaCl; eluted with glutathione, SDS-PAGE, Western blot; details: both partners purified
T1 construct: human metavinculin, full length (1-1,134) lacking residues 895-915 (H1) and 963-983 (H1′); source: E. coli BL21-DE3, purified (as full-length metavinculin); not shown: His8, N-terminal, kept
T1 sequence (looked up): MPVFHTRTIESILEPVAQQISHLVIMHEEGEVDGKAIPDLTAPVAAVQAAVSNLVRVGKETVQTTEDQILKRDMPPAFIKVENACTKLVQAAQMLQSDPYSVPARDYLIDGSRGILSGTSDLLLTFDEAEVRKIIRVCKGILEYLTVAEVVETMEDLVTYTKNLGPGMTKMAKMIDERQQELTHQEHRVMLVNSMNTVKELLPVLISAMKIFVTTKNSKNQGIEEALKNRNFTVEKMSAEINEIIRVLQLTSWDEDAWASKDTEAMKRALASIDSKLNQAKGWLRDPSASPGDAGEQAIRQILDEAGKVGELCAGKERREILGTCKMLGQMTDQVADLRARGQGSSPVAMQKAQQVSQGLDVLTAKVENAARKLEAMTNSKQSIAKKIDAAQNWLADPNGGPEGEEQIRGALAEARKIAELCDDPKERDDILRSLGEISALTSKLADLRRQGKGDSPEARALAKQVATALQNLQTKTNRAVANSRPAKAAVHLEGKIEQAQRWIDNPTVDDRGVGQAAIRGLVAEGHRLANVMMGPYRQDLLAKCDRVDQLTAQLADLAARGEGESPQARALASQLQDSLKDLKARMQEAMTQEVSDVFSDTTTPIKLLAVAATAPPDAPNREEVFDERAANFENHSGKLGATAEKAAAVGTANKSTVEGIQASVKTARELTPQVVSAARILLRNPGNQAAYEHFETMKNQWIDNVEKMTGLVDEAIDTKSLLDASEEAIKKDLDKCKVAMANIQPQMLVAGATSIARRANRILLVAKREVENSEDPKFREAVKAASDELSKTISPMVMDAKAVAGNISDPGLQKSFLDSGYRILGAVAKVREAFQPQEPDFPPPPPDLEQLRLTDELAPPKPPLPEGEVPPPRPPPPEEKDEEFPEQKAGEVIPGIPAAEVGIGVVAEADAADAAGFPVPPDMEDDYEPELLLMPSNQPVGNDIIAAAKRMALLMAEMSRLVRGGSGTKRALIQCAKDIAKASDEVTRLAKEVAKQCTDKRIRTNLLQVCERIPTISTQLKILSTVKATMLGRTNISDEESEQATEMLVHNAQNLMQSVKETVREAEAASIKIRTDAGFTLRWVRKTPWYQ

[2] = target: T2, metavinculin-ΔH1′ (lacking residues 963–983) (human, UniProt P18206 1-1134, lacking residues 963–983); assay: as above; details: both partners purified
T2 construct: human metavinculin, full length (1-1,134) lacking residues 963-983 (α-helix H1′): 1-962 joined to 984-1,134; also called MV-ΔH1′; source: E. coli BL21-DE3, purified (as full-length metavinculin); not shown: His8, N-terminal, kept
T2 sequence (looked up): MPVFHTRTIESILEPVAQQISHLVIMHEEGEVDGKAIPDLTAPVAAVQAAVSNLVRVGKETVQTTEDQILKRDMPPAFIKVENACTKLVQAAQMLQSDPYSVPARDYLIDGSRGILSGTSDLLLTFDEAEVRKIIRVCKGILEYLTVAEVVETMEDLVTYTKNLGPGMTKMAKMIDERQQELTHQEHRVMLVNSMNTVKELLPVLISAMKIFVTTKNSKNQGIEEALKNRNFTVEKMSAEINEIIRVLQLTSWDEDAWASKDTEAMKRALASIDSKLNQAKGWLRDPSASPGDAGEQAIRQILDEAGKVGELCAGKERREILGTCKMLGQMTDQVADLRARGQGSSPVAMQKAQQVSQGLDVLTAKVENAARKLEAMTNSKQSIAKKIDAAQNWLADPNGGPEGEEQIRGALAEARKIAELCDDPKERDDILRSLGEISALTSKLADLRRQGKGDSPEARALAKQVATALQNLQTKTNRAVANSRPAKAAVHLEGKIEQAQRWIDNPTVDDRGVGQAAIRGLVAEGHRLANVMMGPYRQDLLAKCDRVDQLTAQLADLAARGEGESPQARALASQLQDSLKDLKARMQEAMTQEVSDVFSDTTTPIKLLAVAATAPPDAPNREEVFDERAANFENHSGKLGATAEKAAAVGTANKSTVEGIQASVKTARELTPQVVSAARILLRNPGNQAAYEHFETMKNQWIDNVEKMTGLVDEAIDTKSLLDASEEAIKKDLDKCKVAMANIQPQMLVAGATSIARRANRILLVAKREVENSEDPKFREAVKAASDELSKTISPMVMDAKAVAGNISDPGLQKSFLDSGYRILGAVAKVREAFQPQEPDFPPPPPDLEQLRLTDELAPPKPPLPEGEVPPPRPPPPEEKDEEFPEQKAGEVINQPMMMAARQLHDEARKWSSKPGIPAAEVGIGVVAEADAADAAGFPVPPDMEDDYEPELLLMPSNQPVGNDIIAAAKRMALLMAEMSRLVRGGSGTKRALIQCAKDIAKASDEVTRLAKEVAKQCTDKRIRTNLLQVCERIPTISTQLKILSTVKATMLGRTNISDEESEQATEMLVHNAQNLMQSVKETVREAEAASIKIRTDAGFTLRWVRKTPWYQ

[3] = target: the molecule itself; assay: band on SDS-PAGE of the pull-down eluate, identified by Western blot; band seen in the lanes where GST-Vt and PIP2 are present

B1: GST tagged vinculin tail domain (GST-Vt; residues 879–1,066) (domain or fragment, human, UniProt P18206-2 879-1066, looked up)
chain: EEKDEEFPEQKAGEVINQPMMMAARQLHDEARKWSSKGNDIIAAAKRMALLMAEMSRLVRGGSGTKRALIQCAKDIAKASDEVTRLAKEVAKQCTDKRIRTNLLQVCERIPTISTQLKILSTVKATMLGRTNISDEESEQATEMLVHNAQNLMQSVKETVREAEAASIKIRTDAGFTLRWVRKTPWYQ
notes: human vinculin tail domain, residues 879-1,066 of vinculin (1,066-residue isoform), cloned in pGEX-4T-1; source: E. coli BL21-DE3, purified (GSTrap FF, Superdex 75)
binding result [1]: binds
binding result [2]: binds
stoichiometry N [3]: 2
